Columns and labels:
[1] = biological target: FrpD_(43-271) protein (Neisseria meningitidis); test: SEC; Superdex 200 HR column; free proteins and an equimolar mixture of purified FrpD and FrpC_(1-414)
[2] = biological target: FrpD_(43-271) protein (Neisseria meningitidis); test: cross-linking; FrpD-FrpC_(1-414) complex (1 mg/ml, 14 μM) with a 1:1 mixture of d0/d4 BS2G, 30 min; 70-kDa band digested with trypsin, nano-ESI-FTICR mass spectrometry
[3] = biological target: FrpD_(43-271) protein (Neisseria meningitidis); test: SAXS; beamline X33 EMBL, room temperature; FrpD 1–9 mg/ml, FrpD-FrpC_(1-414) complex 1–5 mg/ml; molecular mass from the Porod volume

Measured: stoichiometry N

B1: FrpC_(1-414), the N-terminal domain of FrpC (domain or fragment)
chain: MNEGEVVLTPEQIQTLRGYASRGDTYGGWRYLANLGDRYADNAAAIVGKDTNLNGLNLWMKKGVENLWDDTVGKKTRLEKFDRVALQHFSQYVDLINKNNGRLPNTSEIERSYYKAVTYHGVSSSAAIDLVINRSLPDMADGYWALGLGIEAERIHNEQAVNNPNGSERDNRKQLISALDKGFDGSFKEKHFTFLQSVMMDLTKLGVEYTIDGWQKIGGWGNGIINDLYKSVVKREWTGIFEIVNNNIKQGNEAFKNEINSLVHDMKAAGKEFGDDLNTQWNNLTQAAEIIYNDIVDNTSQGIEKGVKAIKELSEKMKNAASDLADGSAEKAKQVVEDLAQAAKEAYENAKSTAEKAAQAAREFFKGLPSFKDLAEKFRDLFPNPEGWIDDGHQCFAPWVKETKKRNGKYHVYD
1: [1] | [2] | [3]

Source: paper PMC5233953
